# Target: human c-Met receptor on tumor cells (A549, NCI-H441, BxPC3) (human, UniProt P08581 25-1390)
# Experiment: cell-based or functional assay
inhibition of HGF-induced proliferation of NCI-H441 cells (Figure 14A),inhibition of HGF-induced proliferation of NCI-H441 cells (Figure 15),inhibition of HGF-induced proliferation of NCI-H441 cells (Figure 14B),Binder
~46%,–,–,"[224G11][Hz1] (antibody, V domains shown) VH: QVQLVQSGAEVKKPGASVKVSCKASGYIFTAYTMHWVRQAPGQGLEWMGWIKPNNGLANYAQKFQGRVTMTRDTSISTAYMELSRLRSDDTAVYYCARSEITTEFDYWGQGTLVTVSS VL: DIVLTQSPDSLAVSLGERATINCKSSESVDSYANSFMHWYQQKPGQPPKLLIYRASTRESGVPDRFSGSGSRTDFTLTISSLQAEDVAVYYCQQSKEDPLTFGGGTKVEIKR"
–,76%,–,"[224G11][TH7 Hz3] (antibody, V domains shown) VH: QVQLVQSGAEVKKPGASVKVSCKASGYIFTAYTMHWVRQAPGQGLEWMGWIKPNNGLANYAQKFQGRVTMTRDTSISTAYMELSRLRSDDTAVYYCARSEITTEFDYWGQGTLVTVSS VL: DIVMTQSPDSLAVSLGERATINCKSSESVDSYANSFLHWYQQKPGQPPKLLIYRASTRESGVPDRFSGSGSGTDFTLTISSLQAEDVAVYYCQQSKEDPLTFGGGTKVEIKR"
–,67%,–,"[224G11][TH7 Hz1] (antibody, V domains shown) VH: QVQLVQSGAEVKKPGASVKVSCKASGYIFTAYTMHWVRQAPGQGLEWMGWIKPNNGLANYAQKFQGRVTMTRDTSISTAYMELSRLRSDDTAVYYCARSEITTEFDYWGQGTLVTVSS VL: DIVLTQSPDSLAVSLGERATINCKSSESVDSYANSFMHWYQQKPGQPPKLLIYRASTRESGVPDRFSGSGSRTDFTLTISSLQAEDVAVYYCQQSKEDPLTFGGGTKVEIKR"
~30%,–,–,"[224G11][Hz2] (antibody, V domains shown) VH: QVQLVQSGAEVKKPGASVKVSCKASGYIFTAYTMHWVRQAPGQGLEWMGWIKPNNGLANYAQKFQGRVTMTRDTSISTAYMELSRLRSDDTAVYYCARSEITTEFDYWGQGTLVTVSS VL: DIVMTQSPDSLAVSLGERATINCKSSESVDSYANSFMHWYQQKPGQPPKLLIYRASTRESGVPDRFSGSGSGTDFTLTISSLQAEDVAVYYCQQSKEDPLTFGGGTKVEIKR"
~35%,–,–,"[224G11][Hz3] (antibody, V domains shown) VH: QVQLVQSGAEVKKPGASVKVSCKASGYIFTAYTMHWVRQAPGQGLEWMGWIKPNNGLANYAQKFQGRVTMTRDTSISTAYMELSRLRSDDTAVYYCARSEITTEFDYWGQGTLVTVSS VL: DIVMTQSPDSLAVSLGERATINCKSSESVDSYANSFLHWYQQKPGQPPKLLIYRASTRESGVPDRFSGSGSGTDFTLTISSLQAEDVAVYYCQQSKEDPLTFGGGTKVEIKR"
66%,74%,57%,"murine 224G11 Mab (antibody, mouse IgG1, V domains shown) VH: EVQLQQSGPELVKPGASVKISCKTSGYIFTAYTMHWVRQSLGESLDWIGGIKPNNGLANYNQKFKGKATLTVDKSSSTAYMDLRSLTSEDSAVYYCARSEITTEFDYWGQGTALTVSS VL: DIVLTQSPASLAVSLGQRATISCRASESVDSYANSFMHWYQQKPGQPPKLLIYRASNLESGIPARFSGSGSRTDFTLTINPVEADDVATYYCQQSKEDPLTFGSGTKLEMKR"
19%,33%,–,"[224G11]chim (antibody, human IgG1, V domains shown) VH: EVQLQQSGPELVKPGASVKISCKTSGYIFTAYTMHWVRQSLGESLDWIGGIKPNNGLANYNQKFKGKATLTVDKSSSTAYMDLRSLTSEDSAVYYCARSEITTEFDYWGQGTALTVSS VL: DIVLTQSPASLAVSLGQRATISCRASESVDSYANSFMHWYQQKPGQPPKLLIYRASNLESGIPARFSGSGSRTDFTLTINPVEADDVATYYCQQSKEDPLTFGSGTKLEMKR"
–,–,78%,"[224G11][MUP9H chim] (antibody, human IgG1, V domains shown) VH: EVQLQQSGPELVKPGASVKISCKTSGYIFTAYTMHWVRQSLGESLDWIGGIKPNNGLANYNQKFKGKATLTVDKSSSTAYMDLRSLTSEDSAVYYCARSEITTEFDYWGQGTALTVSS VL: DIVLTQSPASLAVSLGQRATISCRASESVDSYANSFMHWYQQKPGQPPKLLIYRASNLESGIPARFSGSGSRTDFTLTINPVEADDVATYYCQQSKEDPLTFGSGTKLEMKR"
–,–,79%,"[224G11][MH chim] (antibody, human IgG1, V domains shown) VH: EVQLQQSGPELVKPGASVKISCKTSGYIFTAYTMHWVRQSLGESLDWIGGIKPNNGLANYNQKFKGKATLTVDKSSSTAYMDLRSLTSEDSAVYYCARSEITTEFDYWGQGTALTVSS VL: DIVLTQSPASLAVSLGQRATISCRASESVDSYANSFMHWYQQKPGQPPKLLIYRASNLESGIPARFSGSGSRTDFTLTINPVEADDVATYYCQQSKEDPLTFGSGTKLEMKR"
–,–,84%,"[224G11][MMCH chim] (antibody, human IgG1, V domains shown) VH: EVQLQQSGPELVKPGASVKISCKTSGYIFTAYTMHWVRQSLGESLDWIGGIKPNNGLANYNQKFKGKATLTVDKSSSTAYMDLRSLTSEDSAVYYCARSEITTEFDYWGQGTALTVSS VL: DIVLTQSPASLAVSLGQRATISCRASESVDSYANSFMHWYQQKPGQPPKLLIYRASNLESGIPARFSGSGSRTDFTLTINPVEADDVATYYCQQSKEDPLTFGSGTKLEMKR"
–,81%,93%,[224G11][TH7 chim] (antibody) heavy: not shown light: DIVLTQSPASLAVSLGQRATISCRASESVDSYANSFMHWYQQKPGQPPKLLIYRASNLESGIPARFSGSGSRTDFTLTINPVEADDVATYYCQQSKEDPLTFGSGTKLEMKRTVAAPSVFIFPPSDEQLKSGTASVVCLLNNFYPREAKVQWKVDNALQSGNSQESVTEQDSKDSTYSLSSTLTLSKADYEKHKVYACEVTHQGLSSPVTKSFNRGEC

# Source: patent publication WO2010064089A1 (dated 2010)
